Series [1] is described as follows: Hydrogel formation by dissolving peptides in NaOH solution. Particulars: for Resultant pH / Self supporting gel formation assigned+: 4% weight peptide in 100 μl NaOH solution; for pH at which hydrogel is stabilized / formed: 0.023M peptide in NaOH solutions. The series is classed as physicochemical. As for the experimental part:
In general the matrix can be formed in the following way: dissolving the peptides at high pH above about 8) using either buffer (Tris) or NaOH. With the addition of the peptide the pH of the mixture drops and hydrogel may form. The peptide that is dissolved in alkaline solution can be titrated with HCl to a pH ˜7 to form yield a gel. The same can be done with HA or other mineral particles incorporated in the first step […]. Upon gelation the particles get trapped in the gel.
Four peptides were tested for their tendency to form hydrogels as function of pH and Ca^+2 ion concentrations. The peptides are 13 amino acids long having the sequence P-Y-(Z-Y)n-P, wherein n=5 and Y and Z are alternating hydrophilic (Y) and hydrophobic (Z) amino acids:
The experiment goal was to find appropriate conditions for hydrogel formation at physiological pH values (˜7.2) assuming that the type of amino acids in the dyads will determine the propensity of the system to form hydrogles thus the pH and the Ca^+2 ionic concentration of the system.
In an alkaline solution the acidic amino acid side chains tend to be negatively charged. Under these conditions charge-charge repulsive forces keep the peptides dissolved in solution. Upon lowering the pH the peptides which become uncharged undergo self-assembling through inter-strand hydrogen bonding, to form fibrous structure (FIG. 3) that stabilizes highly hydrated-gel, hydrogel. […] All the peptides lowered the pH of the solution to about 6-8 (Table 1).
In the next set of experiments the hypothesis that the more hydrophobic side chains would stabilize the beta-sheet fibril thus hydrogel formation, at higher pH values, was tested. Table 2 summarizes the effect of the hydrophobic side chain on the pH at which hydrogel is obtained. PLE-13 and PFE-13 were dissolved in different NaOH solutions to the same molar concentration (0.023M). […]

Test in series [2]: as above
The series is classed as physicochemical. The note with it: 4% weight peptide in 100 μl NaOH solution, NaOH conc. 0.03.

No end group written: not given here. A value given as a limit tells only on which side of the number the result lay.

Take “Ac-Pro-Asp-(Phe-Asp)5-Pro-NH2 (Ac-PDFDFDFDFDFDP-NH2)”: the “Resultant pH” value in series [1] (NaOH conc. 0.03) was approximately 6; in series [1] (NaOH conc. 0.05), more than 7.5. Besides, the “Self supporting gel formation assigned+” value in series [1] (NaOH conc. 0.05) is “Viscous liquid”.

Take PELELELELELEP [PLE-13, PE(LE)5P]: the “pH at which hydrogel is stabilized / formed” value in series [1] is reported as approximately 6.5.

Regarding PDLDLDLDLDLDP [PLD-13, PD(LD)5P], in series [1], the “pH at which hydrogel is stabilized / formed” value is listed as “forms hydrogel at lower pH compared to that of PFD-13”.

Regarding Pro-Asp-(Phe-Asp)6 (PDFDFDFDFDFDFD), the “Resultant pH” value in series [1] (NaOH conc. 0.03) was approximately 6. Moreover, in series [1] (NaOH conc. 0.05), the “Resultant pH” value was approximately 7 and the “Self supporting gel formation assigned+” value is given as “+after several hrs”.

Turning to “Pro-Asp-Phe-Asp (PDFD; printed: Pro-Asp-Phe-Asp)”, the “Resultant pH” value in series [1] (NaOH conc. 0.03) is reported as approximately 3; in series [1] (NaOH conc. 0.05), approximately 4. Besides, the “Self supporting gel formation assigned+” value in series [1] (NaOH conc. 0.05) and in series [2] was “liquid” each time.

With PEFEFEFEFEFEP [PFE-13, PE(FE)5P], the “pH at which hydrogel is stabilized / formed” value in series [1] was more than 7.

Turning to (Phe-Asp)6 (FDFDFDFDFDFD), the “Resultant pH” value is approximately 6 in series [1] (NaOH conc. 0.03) and approximately 7 in series [1] (NaOH conc. 0.05).

As to PDFDFDFDFDFDP [PFD-13, PD(FD)5P], the “pH at which hydrogel is stabilized / formed” value in series [1] is given as approximately 7.

The values are drawn from patent publication US9670249B2, “Amphiphilic peptides and hydrogel matrices thereof for bone repair” (Ben-Gurion University of the Negev Research and Development …, priority 2006, dated 2017).
